Results taken from publication PMC11793827 (2025).

B1: BP2A6 (VHH)
VHH: EVQLQASGGGFVQPGGSLRLSCAASGQTFSHYIMGWFRQAPGKEREFVSAISAGQGHATYYADSVKGRFTISRDNSKNTVYLQMNSLRAEDTATYYCAKYQDTIAPLYWGQGTQVTVSS
B2: DP4F2 (VHH)
VHH: EVQLQASGGGFVQPGGSLRLSCAASGTTYSERVMGWFRQAPGKEREFVSAISSGQSDQTYYADSVKGRFTISRDNSKNTVYLQMNSLRAEDTATYYCAPFAGDANLPREWYWGQGTQVTVSS
B3: AP1D4 (Fc fusion)
chain: EVQLQASGGGFVQPGGSLRLSCAASGHTFDAHRMGWFRQAPGKEREFVSAISSWGQSSTYYADSVKGRFTISRDNSKNTVYLQMNSLRAEDTATYYCAQTDEGNQYVYWGQGTQVTVSS
B4: AP1C3 (VHH)
VHH: EVQLQASGGGFVQPGGSLRLSCAASGRTYRGYSMGWFRQAPGKEREFVSAISSWSDDWTAYADSVKGRFTISRDNSKNTVYLQMNSLRAEDTATYYCAWQYIDEIQYYWGQGTQVTVSS
B5: AP1A5 (Fc fusion)
chain: EVQLQASGGGFVQPGGSLRLSCAASGSTASHYTMGWFRQAPGKEREFVSAISSGRDHAKQYADSVKGRFTISRDNSKNTVYLQMNSLRAEDTATYYCAYEEINATQKDTLYWGQGTQVTVSS

target: WT SARS-CoV-2 RBD (SARS-CoV-2, UniProt P0DTC2 14-1211); assay: ELISA

Binder | Kd [pM]
B1 | 60
B2 | 10700
B3 | 970
B4 | 80
B5 | 1190
